Reference: paper doi:10.1101/2024.05.10.593562 (bioRxiv, 2024)

Biological target: HDAC1-FLAG (UniProt Q13547 1-482)
Assay: AlphaScreen or HTRF

Sequence of HDAC1-FLAG (Q13547 whole entry): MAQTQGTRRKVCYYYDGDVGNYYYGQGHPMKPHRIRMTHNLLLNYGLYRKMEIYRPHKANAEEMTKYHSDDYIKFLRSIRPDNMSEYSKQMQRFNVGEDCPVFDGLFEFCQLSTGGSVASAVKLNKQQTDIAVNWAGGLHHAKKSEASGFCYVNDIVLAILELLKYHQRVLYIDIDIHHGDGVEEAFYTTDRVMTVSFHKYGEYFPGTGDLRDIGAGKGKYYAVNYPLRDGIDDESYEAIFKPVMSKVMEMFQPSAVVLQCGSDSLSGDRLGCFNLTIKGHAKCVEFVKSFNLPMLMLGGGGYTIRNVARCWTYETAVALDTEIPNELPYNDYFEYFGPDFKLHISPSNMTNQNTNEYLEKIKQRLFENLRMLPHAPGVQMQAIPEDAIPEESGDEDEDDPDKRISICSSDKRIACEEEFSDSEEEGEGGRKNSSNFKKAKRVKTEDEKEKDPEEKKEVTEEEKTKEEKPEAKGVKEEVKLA

B1: GST-Rb 380-785 (domain or fragment)
chain: NTIQQLMMILNSASDQPSENLISYFNNCTVNPKESILKRVKDIGYIFKEKFAKAVGQGCVEIGSQRYKLGVRLYYRVMESMLKSEEERLSIQNFSKLLNDNIFHMSLLACALEVVMATYSRSTSQNLDSGTDLSFPWILNVLNLKAFDFYKVIESFIKAEGNLTREMIKHLERCEHRIMESLAWLSDSPLFDLIKQSKDREGPTDHLESACPLNLPLQNNHTAADMYLSPVRSPKKKGSTTRVNSTANAETQATSAFQTQKPLKSTSLSLFYKKVYRLAYLRLNTLCERLLSEHPELEHIIWTLFQHTLQNEYELMRDRHLDQIMMCSMYGICKVKNIDLKFKIIVTAYKDLPHAVQETFKRVLIKEEEYDSIIVFYNSVFMQRLKTNILQYASTRPPTLSPIPHI
  binding result: binds
